Experimental data from article doi:10.1101/2021.10.11.463953.

Target: Acinetobacter sp. Ver3 iron superoxide dismutase (^AV3SodB) (Acinetobacter sp. Ver3)
Assay: crystal structure

Work on “Acinetobacter sp. Ver3 iron superoxide dismutase (^AV3SodB) (enzyme)” yielded a stoichiometry N of 2.
